Measurements reported in patent US20260115332A1, “Fibroblast Activation Protein Alpha-Cleavable Pro-Peptides and Methods of Use” (The Regents of the University of California, priority 2022, published 2026).
Where no end group is shown, it is not given here.

Key:
[1] = target: T1, recombinant human FAPα (Homo sapiens, UniProt Q12884); test: Multiplex substrate profiling by mass spectrometry (MSP-MS); type: biochemical; details: for # of cleavages on MS: top P4-P4′ peptides cleaved by human FAP alpha; for # of cleavages on MSP-MS: human FAP alpha
T1 sequence (Q12884 26-760 limits assumed): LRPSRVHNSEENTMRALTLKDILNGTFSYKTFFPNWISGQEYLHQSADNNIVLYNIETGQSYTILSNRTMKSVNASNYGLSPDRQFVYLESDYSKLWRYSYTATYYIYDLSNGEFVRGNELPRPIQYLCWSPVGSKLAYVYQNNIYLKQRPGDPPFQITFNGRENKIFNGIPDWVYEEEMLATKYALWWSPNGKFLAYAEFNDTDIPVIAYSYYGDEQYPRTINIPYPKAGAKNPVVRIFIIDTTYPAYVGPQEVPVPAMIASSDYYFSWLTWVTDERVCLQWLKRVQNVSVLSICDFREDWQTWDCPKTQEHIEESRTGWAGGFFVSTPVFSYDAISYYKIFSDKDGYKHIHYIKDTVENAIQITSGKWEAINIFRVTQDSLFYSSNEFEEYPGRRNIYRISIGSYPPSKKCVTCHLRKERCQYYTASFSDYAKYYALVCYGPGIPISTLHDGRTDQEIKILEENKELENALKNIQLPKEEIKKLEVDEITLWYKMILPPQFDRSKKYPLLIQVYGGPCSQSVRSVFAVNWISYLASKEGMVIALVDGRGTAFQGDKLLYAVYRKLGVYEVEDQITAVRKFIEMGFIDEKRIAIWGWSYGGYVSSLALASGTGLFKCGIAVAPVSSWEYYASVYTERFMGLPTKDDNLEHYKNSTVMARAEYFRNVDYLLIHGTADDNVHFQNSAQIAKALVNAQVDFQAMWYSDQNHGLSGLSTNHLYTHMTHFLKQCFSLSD
Experimental: Although much is known about the substrate preferences for FAPα from P4-P1, an optimal P4-P4′ substrate sequence for FAPα has never been defined. In this example, multiplex substrate profiling by mass spectrometry (MSP-MS) was performed to identify candidate FAPα P4-P4′ substrate sequences for potential inclusion in a FAPα targeted restricted interaction peptide (or “FRIP”).
Shown on the top of FIG. 3 is an Icelogo representing the cumulative amino acid preferences for recombinant human FAPα. Shown on the bottom of FIG. 3 is a heat map summarizing the amino acids that were most frequently incorporated at each site in the cleavage products. Lighter indicates an enriched amino acid. X=no preferred amino acid.
A list of the top P4-P4′ peptides cleaved by human FAP alpha as determined using the MSP-MS substrate profiling technology are shown in the following table, where X indicates an undefined amino acid site.

[2] = target: T1, recombinant human FAPα; test: Kinetics of FRET donor/acceptor 8 mer substrates under Michaelis-Menten conditions; type: biochemical; details: FRET donor/acceptor substrate adducts, human recombinant FAP alpha
Experimental: Three top hits, […] (SEQ ID NO:38), […] (SEQ ID NO:40), and […] (SEQ ID NO:42), were selected for further analysis. An 8 mer peptide bearing FRET donor-acceptor dyes on the N and C terminus was synthesized and evaluated as a substrate for recombinant human FAPα (RND Systems) under Michaelis-Menten conditions.
A table summarizing the kinetic properties of three of the top P4-P4′ 8 mer peptides emerging from the MSP-MS assay is provided below, where the kinetic properties were determined using FRET donor/acceptor substrate adducts and human recombinant FAP alpha.

[3] = Tumor dose per isotope

Compound	# of cleavages on MS [1]	other results
XSGPDYQK	14	
HQGPFWML (also: FRET labels) [tested as 8 mer FRET peptide]	30	Km [2]: 1.34 µM; kcat [2]: 0.1041 s⁻¹; # of cleavages on MSP-MS [1]: 30
XXMPEEVA	17	
XXWPMGMY	26	
XXFPNMWS	23	
XXHPTKSF	16	
XXIARQPW	14	
HYGPTVNK (also: FRET labels) [tested as 8 mer FRET peptide]	28	Km [2]: 2.7 µM; kcat [2]: 0.04031 s⁻¹; # of cleavages on MSP-MS [1]: 28
XXGPKLTY	28	
CN(CCCN1CCN(C(=O)CN2CCN(CC(=O)O)CCN(CC(=O)O)CCN(CC(=O)O)CC2)CC1)c1ccc2nccc(C(=O)NCC(=O)N3CC(F)(F)C[C@H]3C#N)c2c1 [FAPI 46]		Tumor dose ([3]; Ac-225): 720 Gy/mCi; Tumor dose ([3]; Cu-64): 2 Gy/mCi; Tumor dose ([3]; Cu-67): 11 Gy/mCi; Tumor dose ([3]; Lu-177): 16 Gy/mCi; Tumor dose ([3]; Y-90): 42 Gy/mCi
XXGSQVFS	21	
YHGPLAHX	98	
HIGPTAAY (also: FRET fluorophore/quencher labels) [tested as 8 mer FRET peptide]	43	Km [2]: 2.45 µM; kcat [2]: 0.2986 s⁻¹; # of cleavages on MSP-MS [1]: 43
XXIPTNIR	41	
GMGPFHIV	12	
